Among the data in the Immune Epitope Database (IEDB) are IC50 and Kd values, retold here.

By IC50 is commonly meant the midpoint of a concentration-inhibition curve. By Kd is commonly meant a measure of binding affinity in units of concentration. A higher Kd goes with weaker binding.

For test [1], the target named is HLA-A*02:01. The experiment in a line: IEDB peptide-MHC binding, purified MHC/competitive/radioactivity; ≥ and ≤ were set here for values at or beyond the usual limits of such assays. Conditions: source organism: Homo sapiens.
The target of test [2] is HLA-A*02:01. The experiment in a line: IEDB peptide-MHC binding, purified MHC/competitive/fluorescence; filed as Kd, often an IC50 or EC50 that approximates it; ≥ and ≤ were set here for values at or beyond the usual limits of such assays. Particulars: source organism: Yersinia pestis Nepal516.
Another test addresses HLA-A*02:03. The test is described as above. Conditions: source organism: Yersinia pestis Nepal516.
The next test concerns the target HLA-A*02:11. The description is as above.
Another test has as its target HLA-A*02:12. The test is described as above.
The target in the next test is HLA-A*02:16. Described as above. Conditions: source organism: Yersinia pestis Nepal516.
For another test, the target named is HLA-A*02:19. The test is described as above.
Another test has as its target HLA-A*03:01. The test is described as above.
The next test concerns the target HLA-A*25:01. The test is described as above. Conditions: source organism: Yersinia pestis Nepal516.
For the next test, the target named is HLA-A*26:01. Described as above.
In the next test the target is HLA-A*29:02. The description is as above.
Another test deals with HLA-A*68:02. The test is described as above.
A further test addresses HLA-A*69:01. The test is described as above.
The next test deals with HLA-A*80:01. The description is as above. Particulars: source organism: Yersinia pestis Nepal516.
The target of the next test is HLA-B*15:01. The test is described as above. Particulars: source organism: Yersinia pestis Nepal516.
A further test has as its target HLA-B*15:17. The test is described as above. Conditions: source organism: Yersinia pestis Nepal516.
For a further test, the target named is HLA-B*18:01. The test is described as above.
The target of another test is HLA-B*27:03. The description is as above.
Another test has as its target HLA-B*39:01. Described as above.
Another test addresses HLA-B*46:01. The test is described as above.
The next test has as its target HLA-B*51:01. Described as above. Particulars: source organism: Yersinia pestis Nepal516.
For another test, the target named is HLA-B*57:01. The test is described as above.
The target of another test is HLA-A*03:19. The test is described as above. Conditions: source organism: Cryptosporidium parvum Iowa II.
A further test concerns the target HLA-B*15:42. The description is as above.
Another test deals with HLA-B*27:20. The test is described as above. Particulars: source organism: Cryptosporidium parvum Iowa II.
In a further test the target is HLA-B*45:06. The description is as above.
In the next test the target is HLA-B*83:01. Described as above.
The target in a further test is HLA-C*15:02. Kind of test: IEDB peptide-MHC binding, purified MHC/direct/fluorescence; filed as Kd, often an IC50 or EC50 that approximates it; ≥ and ≤ were set here for values at or beyond the usual limits of such assays. Particulars: source organism: Entamoeba histolytica HM-1:IMSS.
A further test addresses HLA-A*32:15. The experiment in a line: IEDB peptide-MHC binding, purified MHC/competitive/fluorescence; filed as Kd, often an IC50 or EC50 that approximates it; ≥ and ≤ were set here for values at or beyond the usual limits of such assays. Particulars: source organism: Entamoeba histolytica HM-1:IMSS.
Another test concerns the target HLA-A*68:23. The test is described as above. Conditions: source organism: Entamoeba histolytica HM-1:IMSS.
A further test has as its target HLA-C*14:02. The test is described as above. Particulars: source organism: Entamoeba histolytica HM-1:IMSS.
Where [3] appears, read: source organism: Yersinia pestis Nepal516.
The mark [4] stands for this setting: source organism: Cryptosporidium parvum Iowa II.
The mark [5] stands for this setting: source organism: Entamoeba histolytica HM-1:IMSS.

KMDSFLDMQL: in the test with HLA-A*02:01 [1], the IC50 stood at 0.0114 µM.

Consider LELIGNAES, for which the Kd with HLA-A*02:01 [2], with HLA-A*02:03, with HLA-A*02:11 (setting [3]), with HLA-A*02:12 (setting [3]), with HLA-A*02:16 and with HLA-A*02:19 (setting [3]) was at least 20 µM each time. Moreover, the dissociation constant (Kd) in the test with HLA-A*03:01 (setting [3]), in the test with HLA-A*25:01, with HLA-A*26:01 (setting [3]), with HLA-A*29:02 (setting [3]), with HLA-A*68:02 (setting [3]) and in the test with HLA-A*69:01 (setting [3]) was at least 20 µM throughout. Moreover, the Kd with HLA-A*80:01 was at least 20 µM; in the test with HLA-B*15:01, at least 20 µM; in the test with HLA-B*15:17, at least 20 µM; in the test with HLA-B*18:01 (setting [3]) it was 0.921 µM; in the test with HLA-B*27:03 (setting [3]) it was at least 20 µM; in the test with HLA-B*39:01 (setting [3]), at least 20 µM. Moreover, the Kd with HLA-B*46:01 (setting [3]), with HLA-B*51:01 and with HLA-B*57:01 (setting [3]) was at least 20 µM in each case.

As to RIYKRSLKL, the Kd is at least 20 µM with HLA-A*02:11 (setting [4]); at least 20 µM in the test with HLA-A*02:12 (setting [4]); at least 20 µM with HLA-A*02:19 (setting [4]); 0.0189 µM with HLA-A*03:01 (setting [4]); 0.0141 µM in the test with HLA-A*03:19; at least 20 µM in the test with HLA-A*26:01 (setting [4]). Further, the Kd is at least 20 µM with HLA-A*29:02 (setting [4]); at least 20 µM with HLA-A*68:02 (setting [4]); at least 20 µM with HLA-A*69:01 (setting [4]); 2.19 µM in the test with HLA-B*15:42 (setting [4]); at least 20 µM with HLA-B*18:01 (setting [4]); at least 20 µM with HLA-B*27:03 (setting [4]). Also, the Kd was 0.0293 µM in the test with HLA-B*27:20; at least 20 µM with HLA-B*39:01 (setting [4]); at least 5 µM in the test with HLA-B*45:06 (setting [4]); at least 20 µM with HLA-B*46:01 (setting [4]); at least 20 µM in the test with HLA-B*57:01 (setting [4]); at least 5 µM in the test with HLA-B*83:01 (setting [4]).

Turning to YIISTHYQF, the Kd was 1.94 µM with HLA-C*15:02; 0.0003 µM with HLA-A*29:02 (setting [5]); 0.213 µM in the test with HLA-A*32:15; 0.204 µM in the test with HLA-A*68:23; at least 5 µM with HLA-B*15:42 (setting [5]); at least 5 µM with HLA-B*45:06 (setting [5]). Moreover, the figures for the Kd with HLA-B*83:01 (setting [5]) and with HLA-C*14:02 were 5.79 µM and 0.158 µM, respectively.
